Experimental data: paper PMC11574045, “A cofactor-induced repressive type of transcription factor condensation can be induced by synthetic peptides to suppress tumorigenesis” (The EMBO Journal, 2024)

Tested on: HEK293FT cells transfected with TF library
Assay: Screening of TF condensates based on fluorescent puncta
Assay type: cell-based
Settings: Figure 1B numerical data; TF library screen, one value per transcriptional factor
Outline: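 HEK293FT, PEI transfection of TF library, 60 h; ±glucose 12 h; 4% PFA fix, 0.05% Triton X-100 permeabilization, 5% BSA block; anti-Flag/anti-GAL4 overnight at 4 °C, Alexa 488 secondary 1 h; high-content imaging, 50 fields/well.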

| Molecule | Z score of condensed fraction |
| --- | --- |
| ZNF770 (protein, UniProt Q6IQ21 1-691, looked up) Zinc finger protein 770: MMAENNLKMLKIQQCVVANKLPRNRPYVCNICFKHFETPSKLARHYLIHTGQKPFECDVCHKTFRQLVHLERHQLTHSLPFKCSICQRHFKNLKTFVKHQQLHNETYQNNVKQVRRLLEAKQEKSMYGVYNTFTTEERWALHPCSKSDPMYSMKRRKNIHACTICGKMFPSQSKLDRHVLIHTGQRPFKCVLCTKSFRQSTHLKIHQLTHSEERPFQCCFCQKGFKIQSKLLKHKQIHTRNKAFRALLLKKRRTESRPLPNKLNANQGGFENGEIGESEENNPLDVHSIYIVPFQCPKCEKCFESEQILNEHSCFAARSGKIPSRFKRSYNYKTIVKKILAKLKRARSKKLDNFQSEKKVFKKSFLRNCDLISGEQSSEQTQRTFVGSLGKHGTYKTIGNRKKKTLTLPFSWQNMGKNLKGILTTENILSIDNSVNKKDLSICGSSGEEFFNNCEVLQCGFSVPRENIRTRHKICPCDKCEKVFPSISKLKRHYLIHTGQRPFGCNICGKSFRQSAHLKRHEQTHNEKSPYASLCQVEFGNFNNLSNHSGNNVNYNASQQCQAPGVQKYEVSESDQMSGVKAESQDFIPGSTGQPCLPNVLLESEQSNPFCSYSEHQEKNDVFLYRCSVCAKSFRSPSKLERHYLIHAGQKPFECSVCGKTFRQAPHWKRHQLTHFKERPQGKVVALDSVM | -0.4682 |
| ZNF671 (protein, UniProt Q8TAW3 1-534, looked up) Zinc finger protein 671: MLSPVSRDASDALQGRKCLRPRSRRLPLPAAVRAHGPMAELTDSARGCVVFEDVFVYFSREEWELLDDAQRLLYHDVMLENFALLASLGIAFSRSRAVMKLERGEEPWVYDQVDMTSATEREAQRGLRPGCWHGVEDEEVSSEQSIFVAGVSEVRTLMAELESHPCDICGPILKDTLHLAKYHGGKARQKPYLCGACGKQFWFSTDFDQHQNQPNGGKLFPRKEGRDSVKSCRVHVPEKTLTCGKGRRDFSATSGLLQHQASLSSMKPHKSTKLVSGFLMGQRYHRCGECGKAFTRKDTLARHQRIHTGERPYECNECGKFFSQSYDLFKHQTVHTGERPYECSECGKFFRQISGLIEHRRVHTGERLYQCGKCGKFFSSKSNLIRHQEVHTGARPYVCSECGKEFSRKHTLVLHQRTHTGERPYECSECGKAFSQSSHLNVHWRIHSSDYECSRCGKAFSCISKLIQHQKVHSGEKPYECSKCGKAFTQRPNLIRHWKVHTGERPYVCSECGREFIRKQTLVLHQRVHAGEKL | -0.9445 |
| ZPF91 (protein, UniProt Q96JP5 2-570, looked up) E3 ubiquitin-protein ligase …: PGETEEPRPPEQQDQEGGEAAKAAPEEPQQRPPEAVAAAPAGTTSSRVLRGGRDRGRAAAAAAAAAVSRRRKAEYPRRRRSSPSARPPDVPGQQPQAAKSPSPVQGKKSPRLLCIEKVTTDKDPKEEKEEEDDSALPQEVSIAASRPSRGWRSSRTSVSRHRDTENTRSSRSKTGSLQLICKSEPNTDQLDYDVGEEHQSPGGISSEEEEEEEEEMLISEEEIPFKDDPRDETYKPHLERETPKPRRKSGKVKEEKEKKEIKVEVEVEVKEEENEIREDEEPPRKRGRRRKDDKSPRLPKRRKKPPIQYVRCEMEGCGTVLAHPRYLQHHIKYQHLLKKKYVCPHPSCGRLFRLQKQLLRHAKHHTDQRDYICEYCARAFKSSHNLAVHRMIHTGEKPLQCEICGFTCRQKASLNWHMKKHDADSFYQFSCNICGKKFEKKDSVVAHKAKSHPEVLIAEALAANAGALITSTDILGTNPESLTQPSDGQGLPLLPEPLGNSTSGECLLLEAEGMSKSYCSGTERVSLMADGKIFVGSGSSGGTEGLVMNSDILGATTEVLIEDSDSAGP | -0.03316 |
| ZNF791 (protein, UniProt Q3KP31 1-576, looked up) Zinc finger protein 791: MDSVAFEDVSVSFSQEEWALLAPSQKKLYRDVMQETFKNLASIGEKWEDPNVEDQHKNQGRNLRSHTGERLCEGKEGSQCAENFSPNLSVTKKTAGVKPYECTICGKAFMRLSSLTRHMRSHTGYELFEKPYKCKECEKAFSYLKSFQRHERSHTGEKPYKCKQCGKTFIYHQPFQRHERTHIGEKPYECKQCGKALSCSSSLRVHERIHTGEKPYECKQCGKAFSCSSSIRVHERTHTGEKPYACKECGKAFISHTSVLTHMITHNGDRPYKCKECGKAFIFPSFLRVHERIHTGEKPYKCKQCGKAFRCSTSIQIHERIHTGEKPYKCKECGKSFSARPAFRVHVRVHTGEKPYKCKECGKAFSRISYFRIHERTHTGEKPYECKKCGKTFNYPLDLKIHKRNHTGEKPYECKECAKTFISLENFRRHMITHTGDGPYKCRDCGKVFIFPSALRTHERTHTGEKPYECKQCGKAFSCSSYIRIHKRTHTGEKPYECKECGKAFIYPTSFQGHMRMHTGEKPYKCKECGKAFSLHSSFQRHTRIHNYEKPLECKQCGKAFSVSTSLKKHMRMHNR | -0.6142 |
| CDKN2C (protein, UniProt P42773 1-168, looked up) Cyclin-dependent kinase 4 …: MAEPWGNELASAAARGDLEQLTSLLQNNVNVNAQNGFGRTALQVMKLGNPEIARRLLLRGANPDLKDRTGFAVIHDAARAGFLDTLQTLLEFQADVNIEDNEGNLPLHLAAKEGHLRVVEFLVKHTASNVGHRNHKGDTACDLARLYGRNEVVSLMQANGAGGATNLQ | -0.5488 |
| ZNF581 (protein, UniProt Q9P0T4 1-197, looked up) Zinc finger protein 581: MLVLPSPCPQPLAFSSVETMEGPPRRTCRSPEPGPSSSIGSPQASSPPRPNHYLLIDTQGVPYTVLVDEESQREPGASGAPGQKKCYSCPVCSRVFEYMSYLQRHSITHSEVKPFECDICGKAFKRASHLARHHSIHLAGGGRPHGCPLCPRRFRDAGELAQHSRVHSGERPFQCPHCPRRFMEQNTLQKHTRWKHP | -0.1395 |
| ZSCAN1 (protein, UniProt Q8NBB4 1-408, looked up) Zinc finger and SCAN …: MLPRPKAPASPRRPQTPTPSEQDADPGPASPRDTEAQRLRFRQFQYHVASGPHLALGQLWTLCRQWLRPEARSKEQMLELLVLEQFLGALPSKMRTWVQSQGPRSCREAASLVEDLTQMCQQEVLVSLDSVEPQDWSFGEEEDGKSPRSQKEPSQASELILDAVAAAPALPEESEWLETTQLQQSLHTRAEAEAPRAPGLLGSRARLPLKPSIWDEPEDLLAGPSSDLRAEGTVISSPKGPSAQRISPRRRNRNTDQSGRHQPSLKHTKGGTQEAVAGISVVPRGPRGGRPFQCADCGMVFTWVTHFIEHQKTHREEGPFPCPECGKVFLHNSVLTEHGKIHLLEPPRKKAPRSKGPRESVPPRDGAQGPVAPRSPKRPFQCSVCGKAFPWMVHLIDHQKLHTAHGHM | 1.179 |
| CDX2 (protein, UniProt Q99626 1-313, looked up) Homeobox protein CDX-2: MYVSYLLDKDVSMYPSSVRHSGGLNLAPQNFVSPPQYPDYGGYHVAAAAAAAANLDSAQSPGPSWPAAYGAPLREDWNGYAPGGAAAAANAVAHGLNGGSPAAAMGYSSPADYHPHHHPHHHPHHPAAAPSCASGLLQTLNPGPPGPAATAAAEQLSPGGQRRNLCEWMRKPAQQSLGSQVKTRTKDKYRVVYTDHQRLELEKEFHYSRYITIRRKAELAATLGLSERQVKIWFQNRRAKERKINKKKLQQQQQQQPPQPPPPPPQPPQPQPGPLRSVPEPLSPVSSLQASVPGSVPGVLGPTGGVLNPTVTQ | -0.211 |
| ZNF576 (protein, UniProt Q9H609 1-170, looked up) Zinc finger protein 576: MEDPNPEENMKQQDSPKERSPQSPGGNICHLGAPKCTRCLITFADSKFQERHMKREHPADFVAQKLQGVLFICFTCARSFPSSKALITHQRSHGPAAKPTLPVATTTAQPTFPCPDCGKTFGQAVSLRRHRQMHEVRAPPGTFACTECGQDFAQEAGLHQHYIRHARGEL | -0.3795 |
| CDX1 (protein, UniProt P47902 1-265, looked up) Homeobox protein CDX-1: MYVGYVLDKDSPVYPGPARPASLGLGPQAYGPPAPPPAPPQYPDFSSYSHVEPAPAPPTAWGAPFPAPKDDWAAAYGPGPAAPAASPASLAFGPPPDFSPVPAPPGPGPGLLAQPLGGPGTPSSPGAQRPTPYEWMRRSVAAGGGGGSGKTRTKDKYRVVYTDHQRLELEKEFHYSRYITIRRKSELAANLGLTERQVKIWFQNRRAKERKVNKKKQQQQQPPQPPMAHDITATPAGPSLGGLCPSNTSLLATSSPMPVKEEFLP | 2.938 |
| ZNF800 (protein, UniProt Q2TB10 1-664, looked up) Zinc finger protein 800: MPLRDKYCQTDHHHHGCCEPVYILEPGDPPLLQQPLQTSKSGIQQIIECFRSGTKQLKHILLKDVDTIFECKLCRSLFRGLPNLITHKKFYCPPSLQMDDNLPDVNDKQSQAINDLLEAIYPSVDKREYIIKLEPIETNQNAVFQYISRTDNPIEVTESSSTPEQTEVQIQETSTEQSKTVPVTDTEVETVEPPPVEIVTDEVAPTSDEQPQESQADLETSDNSDFGHQLICCLCRKEFNSRRGVRRHIRKVHKKKMEELKKYIETRKNPNQSSKGRSKNVLVPLSRSCPVCCKSFATKANVRRHFDEVHRGLRRDSITPDIATKPGQPLFLDSISPKKSFKTRKQKSSSKAEYNLTACKCLLCKRKYSSQIMLKRHMQIVHKITLSGTNSKREKGPNNTANSSEIKVKVEPADSVESSPPSITHSPQNELKGTNHSNEKKNTPAAQKNKVKQDSESPKSTSPSAAGGQQKTRKPKLSAGFDFKQLYCKLCKRQFTSKQNLTKHIELHTDGNNIYVKFYKCPLCTYETRRKRDVIRHITVVHKKSSRYLGKITASLEIRAIKKPIDFVLNKVAKRGPSRDEAKHSDSKHDGTSNSPSKKYEVADVGIEVKVTKNFSLHRCNKCGKAFAKKTYLEHHKKTHKANASNSPEGNKTKGRSTRSKALV | 3.058 |
| ZNF586 (protein, UniProt Q9NXT0 1-402, looked up) Zinc finger protein 586: MAAAAALRAPAQSSVTFEDVAVNFSLEEWSLLNEAQRCLYRDVMLETLTLISSLGCWHGGEDEAAPSKQSTCIHIYKDQGGHSGERPYECGEYRKLFKNKSCLTEPRRDHKHRNVRTGERPYECSKYGKLFHQKPTLHIHERFHTGQKTYECSECGKSFHQSSSLLQRQTLHTRERPYECIECGKAFAEKSSLINHRKVHSGAKRYECNECGKSFAYTSSLIKHRRIHTGERPYECSECGRSFAENSSLIKHLRVHTGERPYECVECGKSFRRSSSLLQHQRVHTRERPYECSECGKSFSLRSNLIHHQRVHTGERHECGQCGKSFSRKSSLIIHLRVHTGERPYECSDCGKSFAENSSLIKHLRVHTGERPYECIDCGKSFRHSSSFRRHQRVHTGMRPYK | 0.1456 |
